According to the supplement of paper PMC10567573:

B1: SCNN1D (parent)
chain: RRPSPVLRHLELLDEFARENIDSL

Variants of: B1
Assay: protein stability index of a GFP-peptide fusion (GPS, HEK-293T) (PSI 1-6); higher = more stable
Conditions: c terminus: a fixed tail appended
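Also: lentivirally expressed fusions sorted by FACS into six bins by GFP to DsRed ratio, PSI derived from sequencing read proportions per bin multiplied by bin number.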

In order of falling protein stability index:
1. RRPSPVLRHLELLDEFDRENIDSL [A17D]  4.43
2. RRPSPVLRHLELLDEFARENPDSL [I21P]  4.41
3. RRPSPVLRHLELLDEFSRENIDSL [A17S]  4.37
4. RRPSPVLRHLELLDEFERENIDSL [A17E]  4.18
5. RRPSPVLRHLELLDEFNRENIDSL [A17N]  4.14
6. RRPSPVLRHLELLDEFKRENIDSL [A17K]  3.98
7. RRPSPVLRHLELLDEFARGNIDSL [E19G]  3.88
8. RRPSPVLRHLELLDEFARENSDSL [I21S]  3.85
9. RRPSPVLRHLELLDEFHRENIDSL [A17H]  3.74
10. RRPSPVLRHLELLDEFGRENIDSL [A17G]  3.72
11. RRPSPVLRHLELLDEFAREDIDSL [N20D]  3.65
12. RRPSPVLRHLELLDEFTRENIDSL [A17T]  3.62
13. RRPSPVLRHLELLDEFARENHDSL [I21H]  3.61
14. RRPSPVLRHLELLDEFARENQDSL [I21Q]  3.59
15. RRPSPVLRHLELLDEFPRENIDSL [A17P]  3.48
16. RRPSPVLRHLELLDEFCRENIDSL [A17C]  3.38
17. RRPSPVLRHLELLDEFARENGDSL [I21G]  3.38
18. RRPSPVLRHLELLDEFARENDDSL [I21D]  3.36
19. RRPSPVLRHLELLDEFARENKDSL [I21K]  3.36
20. RRPSPVLRHLELLDEFAREKIDSL [N20K]  3.34
21. RRPSPVLRHLELLDEFARENEDSL [I21E]  3.27
22. RRPSPVLRHLELLDSFARENIDSL [E15S]  3.27
23. RRPSPVLRHLELLDEFARANIDSL [E19A]  3.18
24. RRPSPVLRHLELLDEFQRENIDSL [A17Q]  3.16
25. RRPSPVLRHLELLDEFARTNIDSL [E19T]  3.16
26. RRPSPVLRHLELLDEFARENINSL [D22N]  3.12
27. RRPSPVLRHLELLDEFLRENIDSL [A17L]  3.07
28. RRPSPVLRHLELLDEFARENADSL [I21A]  3.04
29. RRPSPVLRHLELLDEFAREPIDSL [N20P]  3.04
30. RRPSPVLRHLELLDEFWRENIDSL [A17W]  3.03
31. RRPSPVLRHLELLDEFARENTDSL [I21T]  2.98
32. RRPSPVLRHLELLDEFARENIKSL [D22K]  2.97
33. RRPSPVLRHLELLDEFARENIASL [D22A]  2.97
34. RRPSPVLRHLELLDEFARENRDSL [I21R]  2.96
35. RRPSPVLRHLELLDEFARENLDSL [I21L]  2.95
36. RRPSPVLRHLELLDQFARENIDSL [E15Q]  2.95
37. RRPSPVLRHLELLDEFVRENIDSL [A17V]  2.94
38. RRPSPVLRHLELLDEFRRENIDSL [A17R]  2.94
39. RRPSPVLRHLELLDEFMRENIDSL [A17M]  2.92
40. RRPSPVLRHLELLDTFARENIDSL [E15T]  2.92
41. RRPSPVLRHLELLDEFYRENIDSL [A17Y]  2.9
42. RRPSPVLRHLELLDEFARENMDSL [I21M]  2.89
43. RRPSPVLRHLELLDEFARNNIDSL [E19N]  2.89
44. RRPSPVLRHLELLDEFAREGIDSL [N20G]  2.88
45. RRPSPVLRHLELLDEFARMNIDSL [E19M]  2.88
46. RRPSPVLRHLELLDEFARVNIDSL [E19V]  2.88
47. RRPSPVLRHLELLDEFARENIHSL [D22H]  2.87
48. RRPSPVLRHLELLDEFARENVDSL [I21V]  2.87
49. RRPSPVLRHLELLDEFAREWIDSL [N20W]  2.85
50. RRPSPVLRHLELLDEFARENNDSL [I21N]  2.81
51. RRPSPVLRHLELLDEFARENIRSL [D22R]  2.76
52. RRPSPVLRHLELLDEFARENFDSL [I21F]  2.74
53. RRPSPVLRHLELLDEFARSNIDSL [E19S]  2.74
54. RRPSPVLRHLELLDEFARKNIDSL [E19K]  2.74
55. RRPSPVLRHLELLDEFARDNIDSL [E19D]  2.73
56. RRPSPVLRHLELLDEFARERIDSL [N20R]  2.72
57. RRPSPVLRHLELLDEFARPNIDSL [E19P]  2.72
58. RRPSPVLRHLELLDRFARENIDSL [E15R]  2.72
59. RRPSPVLRHLELLDEFARQNIDSL [E19Q]  2.68
60. RRPSPVLRHLELLDEFARCNIDSL [E19C]  2.66
61. RRPSPVLRHLELLDEFARRNIDSL [E19R]  2.61
62. RRPSPVLRHLELLDEFAREVIDSL [N20V]  2.54
63. RRPSPVLRHLELLDEFAREFIDSL [N20F]  2.52
64. RRPSPVLRHLELLDEFARLNIDSL [E19L]  2.52
65. RRPSPVLRHLELLDEFARINIDSL [E19I]  2.5
66. RRPSPVLRHLELLDEFARHNIDSL [E19H]  2.5
67. RRPSPVLRHLELLDEFIRENIDSL [A17I]  2.46
68. RRPSPVLRHLELLDEFARFNIDSL [E19F]  2.46
69. RRPSPVLRHLELLDEFARENCDSL [I21C]  2.43
70. RRPSPVLRHLELLDEFARENISSL [D22S]  2.42
71. RRPSPVLRHLELLDEFARYNIDSL [E19Y]  2.39
72. RRPSPVLRHLELLDEFARESIDSL [N20S]  2.36
73. RRPSPVLRHLELLDEFAREAIDSL [N20A]  2.35
74. RRPSPVLRHLELLDEFARENYDSL [I21Y]  2.34
75. RRPSPVLRHLELLDEFARECIDSL [N20C]  2.33
76. RRPSPVLRHLELLDVFARENIDSL [E15V]  2.29
77. RRPSPVLRHLELLDEFFRENIDSL [A17F]  2.24
78. RRPSPVLRHLELLDEFARELIDSL [N20L]  2.17
79. RRPSPVLRHLELLDEFARENIISL [D22I]  2.15
80. RRPSPVLRHLELLDEFAREQIDSL [N20Q]  2.08
81. RRPSPVLRHLELLDEFAREYIDSL [N20Y]  2.07
82. RRPSPVLRHLELLDWFARENIDSL [E15W]  2.05
83. RRPSPVLRHLELLDEFARENIVSL [D22V]  2.03
84. RRPSPVLRHLELLDEFARETIDSL [N20T]  1.93
85. RRPSPVLRHLELLDEFAREEIDSL [N20E]  1.88
86. RRPSPVLRHLELLDEFARENWDSL [I21W]  1.87
87. RRPSPVLRHLELLDEFAREHIDSL [N20H]  1.85
88. RRPSPVLRHLELLDYFARENIDSL [E15Y]  1.83
89. RRPSPVLRHLELLDEFARWNIDSL [E19W]  1.82
90. RRPSPVLRHLELLDEFAREMIDSL [N20M]  1.77
91. RRPSPVLRHLELLDEFAREIIDSL [N20I]  1.74
92. RRPSPVLRHLELLDEFARENICSL [D22C]  1.7
93. RRPSPVLRHLELLDEFARENIWSL [D22W]  1.68
94. RRPSPVLRHLELLDEFARENIFSL [D22F]  1.57
